Experiment: yeast display, Sf9 membrane polyspecificity reagent, FACS + sequencing; frameworks hold sequencing errors
Summary of the method: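 Galactose induction of a Saccharomyces cerevisiae BJ5465 synthetic nanobody display library ran 36–48 hours. The cells were then stained for 1 hour at 4 °C with 10% biotinylated, detergent-solubilized Sf9 membrane reagent, pulled down on streptavidin microbeads and FACS-sorted into low and high (top ~1%) gates on expression and reagent-binding fluorescence. Labels for polyreactivity follow the gate of origin.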

QVQLVESGGGLVQAGGSLRLSCAASGFTFEKYAMGWYRQAPGKERELVAAITQSAGSTYADSVKGRFTISRDNAKNTVYLQMNSLKPVDTAVYYCAARYRYPYYARYGYWGQGTQVTVSS
polyreactivity (PSR sort gate): high polyreactivity

QVQLVESGGGLVQAGGSLRLSCAASGRTFSVNAMGWYREAPGKEREFVAGISYSGNTYYADSVKGRVTISRDNAKKTAYLQMNSLKPEDTAVYYCAARRGYNDGYWGQGTQVTVSS
polyreactivity (PSR sort gate): high polyreactivity

QVQLVESGGGLVQAGGSLRLSCAASGSISDVYTMGWYRQAPGKERELVAANSFSGDSTYYADSVKGRFTISRDNAKNTVYLQMNSLKPEDTAVYYCATDVGYVYGYYYWGQGTQVTVSS
polyreactivity (PSR sort gate): low polyreactivity

QVQLVESGGGLDQAGGSLRLSCAASGSIFEGNGMGWYRQAPGKERELVAAITFRSGSTYYADSVKGRFTISRDNAKNTVYLQMNSLKPEDTAVYYCAADEYYQVSAYDYWGQGTQVTVSS
polyreactivity (PSR sort gate): low polyreactivity

QVQLVESGGGLVQAGGSLRLSCAASGSTFRTYAMGWYRQAPGTEREFVAVISASGGSTYYADSVKGRFTISRDNAKNTVYLQMNSQKPEDTAVYYCNAGRPRFYRSRWYYYGYGYWGQGTQVTVSS
polyreactivity (PSR sort gate): high polyreactivity

QVQLVESGGGLVQAGGSLRLSCAASGYTFGVYVMGWYREAPGKERELVAAISGSTYYADSVKGRFTISRDNAKNTVYVQMNSLKPEDTAVYYCAAESYFFSPRTREKFDYWGQGTQVTVSS
polyreactivity (PSR sort gate): low polyreactivity

QVQLVESGGGLVQAGGSLRLSCAASGSIFWVYAMGWYRQAPGKERELVAAISSSGGRTYYADSVKGRFTISRDNAKNTVYLQMNSLKPEDTAVYYCASRWKTGYNYWGQGTQVTVSS
polyreactivity (PSR sort gate): high polyreactivity

QDQLVESGGGLVQAGGSLRLSSAASGRTFCYNTKGWYRQSPGKERELLAAINYSGGSTYYADSVKGRFTISRDNAKNTVYLQMNSLKPEDTAVYYWNAKPRWYVPYDYWGQGTQVNVSS
polyreactivity (PSR sort gate): high polyreactivity

QVQLVESGGGLVQAGGSLRLSCAASGGTFYAYAMGWYRQAPGKERELVAAITNSGGSTYYADSVKGRFTISRDNAKNTVYLQMNSLKPEDTAVYYCARRRSYRDNYWGQGTQVTVSS
polyreactivity (PSR sort gate): high polyreactivity

QVQLVESGGGLVQAGGSLRLSCAASGFTFEGYAMGWYRQAPGKERDLVAAISSNGGRTYYADSVKGRFTISRDNAKNPVYLQMNSLKPEDTAVYYCNADGYGDYSFLKYRFEYDYWGQGTQVTVSS
polyreactivity (PSR sort gate): low polyreactivity

QVQLQESGGGLVQAGGSLRLSCAASGTISYAPHMGWYRQAPGKERELVAGITIVGTTYYADSVKGRFTISRDNAKNTVYLQMNSLSPGDTAVYYCAAHSEQYTPFYYWGQGTQVTVSS
polyreactivity (PSR sort gate): low polyreactivity

QVQLVESGGGLVQAGGSLRLSCAASGSIFDPNAMGWYRQAPGKEREFVAAISYGGGSTTYADSVKGRFTISRDNAKNTVYLQMNSLKPEDTAVYYCAAGFYTYPTWFHPGYLFSAGDYWGQGTQVTVSS
polyreactivity (PSR sort gate): low polyreactivity

QVQRVESGGGLVQAGGSLRLSCAASGSTFRRYTMGWYRQAPGKERELVAAITYRGSSTYYADSVKGRFTISRDNAKNTVYLQMNSLKPEDTAVYYCAADARYTGYYYWGQGTQVTVSS
polyreactivity (PSR sort gate): high polyreactivity

QVQLVESGGGLVQAGGSLRLSCAASGSTFPYNAMGWYRQAPGQERELVAAITRGGRTYYADSLKGRFTISRDNSKNTVYLQMISLKPEDTAVYYCAAYYSGYSKKFDYWGQGTQVTVSS
polyreactivity (PSR sort gate): high polyreactivity

QDQIVESGVGLVQAGGTLRLSCAASGFTFRRYVMGWYRQAPGKERELVAAISQSGGSTYYADSVKGRFTISRDNAKNTVYLQMKSLKPEDTAVYYCAATGAFWYPYDYWGQGTQVTVSS
polyreactivity (PSR sort gate): high polyreactivity

QVQLVESGGGLVQAGGSLRLSCAASGSILWHNAKGWYRQAPGKEREFVAAISARGTRTYYADSVKGRFTISRDNAKNSVYLQMNSLKPEDTAVYYCAARYWDDRARAEDYWGQGTQVTVSS
polyreactivity (PSR sort gate): high polyreactivity

QVQLVESGGGLVQAGGSLRLSCAASGRTFQDNAMGWYRQAPGKERELVAAISWRGGSTNYADSVKGRFTISRDNAKNTVYLQMNSLKPEDTAVYYCAKGIRRWYGGSDYWGQGTQVTVSS
polyreactivity (PSR sort gate): low polyreactivity

QVHLVESGGGLVQAGGSLLLSCDASGSIIKQYAMGWYRQAPGKERELVASIRWRDGSTYYADSVKGRFTISRDNAMNTVYLQMNSLKPEDTAVYYCAAYYCVWRYKYYYWGQGTQVTVSS
polyreactivity (PSR sort gate): high polyreactivity

QVQLVESGGGLVQAGGSLRLTCAASGLIFVDNAMGWYRQAPGKERELVAAIDSGGSTNYADSVKGRFTISRDNAKNTVYLPMNSLKPEDTAVYYCAAEYVRFYWYTSDYWGQGTQVTVSS
polyreactivity (PSR sort gate): low polyreactivity

QVQLVESGGGLVQAGGSLRLSCAASGGIFPSYAMGWYRQAPGKERELVAAITRGASTYADSVKGRFTISRDNAKNTVYLQMNSLKPEDTAVYYCAADTKRRSIRYDYWGQGTQVTVSS
polyreactivity (PSR sort gate): high polyreactivity

QVQLVESGGCLVQAGGSLRLSCAATGRIFKRYVMGWYRQAPGKERELVAAISQRGGSTNYADSVKGRFTISRDNAKNTVYLQMNSLKPEDTAVYYCAAGFFSRYDYWGQGTQVTVSS
polyreactivity (PSR sort gate): high polyreactivity

QVQLVESGGGLVQAGGSLRLSCAASGFTFSHYPMGWYRQAPGKERELVASISRRCGTTYYADSVKGRFTISRDNAKNTVYLQMNSLKPEDTAVYYCAVDLYIYYREYDYWGQGTQVTVSS
polyreactivity (PSR sort gate): high polyreactivity

QVQLVESGGGLVQAGGSLRLSCAASGFTYRPNAMGWYRQAPGKERELVASIRYSGGSTYYADSVKGRFTISRDNAKNTVYLQMNSLKPEDTAVYYCAAVLYSWMRLGSTYTYDYWGQGTQVTVSS
polyreactivity (PSR sort gate): low polyreactivity

QVQLVESGGGLVQAGGSLRLSCAASGIIFSYNAMGWYRQAPGKERELVAAINSSGGSTNYADSVKGRFTISRDNAKNTVYLQMNSLKPEDTAVYYCAARDATYYGVWRYYGIDDYWGQGTQVTVSS
polyreactivity (PSR sort gate): low polyreactivity

QVQLVESGGGLVQAGGSLRLSCAASGRIFRWYTMGWYRQAPGKEREFVAAITWSDTSTSYADSVKGRFTISRDNAKKTVYLQMNSLKPEDTAVYYCNAATRSSVTFGWYIEYDYWGQGTQVTVSS
polyreactivity (PSR sort gate): low polyreactivity

QVQLVESGGGLVQAGGSLRLSCAASGSISFLYTMGWYRQAPGKERELVAAITGSTASTYYADSVKGRFTISRDNAKNTVYLQMNSLKPEDTAVYYCNADSYPGLNPDFDYWGQGTQVTVSS
polyreactivity (PSR sort gate): low polyreactivity

QVQLVESRGGLVQAGGSLRLSYAASGITFRKYAIGWYRQAPGKESELVAAISWSGGSTYYADSVKGGFTISRDNAMNTVYLQMNSMKPEDTAVYYCAAPHWSPYDYWGQGTQVTVSS
polyreactivity (PSR sort gate): high polyreactivity

HVQLVESGGGLVQAGGSLRLSCAASGRNYYTYTMGRSRQAPGKEKQLVATITVGTRTNYADSVKGRFTISRDNAQNTVYLQMNSLKRVDTAVYYCNAEWSSKRFTGDDYWGQGTQVTVSS
polyreactivity (PSR sort gate): low polyreactivity

QVQLVESGGGLVQAGGSLRLSCAASGIIFKSYAKGWYRQAPGKARELVAAMSWIGGSTYYADSVKGRFTISRDNAKHTVYFQMTSLKPEATAVYYCNARQYRRSRMDYWGQGTQVTVSS
polyreactivity (PSR sort gate): high polyreactivity

QVQLVESGGGLVQAGGSLRLSCAASGRIFKTYAMGWYRQAPGKEREVVAAITAAGGRTYYADSVKGRFTISRDNAKNTVYLQMNSLKPEDTAVYYCAADSGNDYDYWGQGTQVTVSS
polyreactivity (PSR sort gate): low polyreactivity

QVQLVESGGGLVQAGGSLRLSCAASGTFVTYMGWSRQAPGKERELVAAIRNGGSTNNADTVKGRFTISRDNAKNTVYLQMNSLIPEDTAVYYCAPRFTYSRGYRGGSRTKYDYWGQGTQVTVSS
polyreactivity (PSR sort gate): low polyreactivity

QVQLVESGGCLVQAGGSLRLSCAASGIIFGRYTMGWYRQAPGKERELVAAITSSGITYYADSVKGRVTISRDNAKNTVYLQMNSLKPEDTAVYYCNADYSSPGYYWPYDYWGQGTQVSVSS
polyreactivity (PSR sort gate): low polyreactivity

QVQLVESGGGLVQAGGSLRLSCAASGLNFYDNVMGWSRPAPGKEREFVAAITSIGGSTYYADSVKGRFTISRDNAMNTVYLQMISLKPEDTAVYYCIGKSKYYSPNYDYWGQGTQVTVSS
polyreactivity (PSR sort gate): low polyreactivity

QVQLVESGGGLVQAGGSLRLSCAASGRIFYAYAMGLYRQAPGKERELVAAITWSGGSTYYADSVKGRFTISRDNAKNTVYLQMNSLKQEDTAVYYCAADLRVKYVHTYSYVWYRYDYWGQGTQVTVSS
polyreactivity (PSR sort gate): high polyreactivity

QVQLQESGGGQVLAGGSLRLSCAASGSISAQAYMGWDRQAPGKEREHVAGINYGDNTNYADSVKGRFTISRDNEHRVSADEQPVSGRYRGVLLRGFLELFYYYIYWGQGTQVNVSS
polyreactivity (PSR sort gate): high polyreactivity

QVQLVESGGGLVQAGGSHRLSCAASGRIFAYNAMGWYRQAPGKERELVAAISSGGNTYYADSVKGRFTISRDNAKNTVYLQMNSLTPEDTAVYYCNAGVGWHRYYSNYDYWGQGTQVTVSS
polyreactivity (PSR sort gate): low polyreactivity

QVQLVESGGGLVQAGGSLRLSCAASGSTFSSYAMGWYRQAPGKERELVAAISTRSGSTYYADSVKGRFTISRDNAKNTVYLQMNSLKPEDTAVYYCAADGFYYDDGYWGQGTQVTVSS
polyreactivity (PSR sort gate): low polyreactivity

QVQLVESGGGLVQAGGSLRLSCAASGYIFYFYAMGWYRQAPGKERELVAAISSSGGSTRYADSVKGRFTISRDNAKNTVYLQMNSLKPEDTAVYYCAASHWSGAAWYYYWGQGTQVTVSS
polyreactivity (PSR sort gate): high polyreactivity

QDQLVESGGGLVQAGGSLRLSCAASGYIFSTYAMGWYRQAPGKERELVAAISSSGGSTYYADSVKGRFTISRDNAKNTVFLQMNSLKPEDTAVYYCYAGKHVRQRYDHWGQGTQVSVSS
polyreactivity (PSR sort gate): high polyreactivity

QVQLVESGGGLVQAGGSLRLSCAASRLIFYTYAMGWYRQAPGKETELVAAISFSGGSTYYADSVTGRFTISRDNAKNTVYLLMTSLKPEDTAVYYCAARGYYGYYYWGQGTQVTVSS
polyreactivity (PSR sort gate): high polyreactivity

QVQLVESGGGLVQAGGSLRLSCAASGSTFYDYVMGWYRQAPGKERELVAAITGDGTTDYADSVKGRFTISRDNAKNTVYLQMNSLKPEDTAVYYCNADISLDYDYWGQGTQVTVSS
polyreactivity (PSR sort gate): low polyreactivity

QDQLVESGGGLVQAGGSLRLSFAASGLTFRYYAMGWYRQAPGKERELVAAISSGGRTDYADSVKGRFTISRDNAKNTVYLQMNSLKPEDTAVYYCNARGRIRSYRQVRTYSAYNYWGQGTQVTVSS
polyreactivity (PSR sort gate): high polyreactivity

QVQLVESGGGLVHAGGSLRLSCAASGSTFSRNVMVWYRQAPGKEWELVAAISRGGSTNYADSVKGRFTISRENAKNTVYLQMKSLKPEDTAVYYCNAPRLGKFYNWGQGTQVTVSS
polyreactivity (PSR sort gate): low polyreactivity

Source: the nanobody polyreactivity screen of Harvey et al. (2022)
